Experimental data as given in doi:10.1101/2022.08.25.505150 (bioRxiv, 2022).

Legend:
[1] = target: 6His-PilC (Streptococcus sanguinis 2908); assay: ITC
[2] = target: 6His-PilC (Streptococcus sanguinis 2908); assay: SEC-MALS
[3] = target: the molecule itself; assay: SEC-MALS

PilA_(T95A) (from UniProt A0A0B7GNW3 33-164) (domain or fragment)
% of the wild-type binding (KD ratio to the WT) [1]: 38.3%

6His-PilA (from UniProt A0A0B7GNW3 33-164) (domain or fragment)
stoichiometry N [2]: 1 | Kd [1]: 23.8 nM

B1: 6His-PilA (domain or fragment, Streptococcus sanguinis 2908, UniProt A0A0B7GNW3 33-164, looked up)
chain: DTGQSQTQRMYNYLKAKYTATSGTQLAWGAYLDPVDGNPSSVYAEFDERAHNVDPSTEPIKSTHTFKDGSVAEIEMNGQLVDGLTGPENYNITIKSKSKLAGSNDYYEHIVTFNFDTKGIRSEEGHLRSAQK
stoichiometry N [3]: 2
